Experimental data published in patent US20190328865A1.

Target: dipeptidyl peptidase 4 (DPP4), cellular receptor on Huh-7 cells (human) (UniProt P27487)
Assay: cell-based or functional assay

UniProt P27487, sequence (P27487 whole entry): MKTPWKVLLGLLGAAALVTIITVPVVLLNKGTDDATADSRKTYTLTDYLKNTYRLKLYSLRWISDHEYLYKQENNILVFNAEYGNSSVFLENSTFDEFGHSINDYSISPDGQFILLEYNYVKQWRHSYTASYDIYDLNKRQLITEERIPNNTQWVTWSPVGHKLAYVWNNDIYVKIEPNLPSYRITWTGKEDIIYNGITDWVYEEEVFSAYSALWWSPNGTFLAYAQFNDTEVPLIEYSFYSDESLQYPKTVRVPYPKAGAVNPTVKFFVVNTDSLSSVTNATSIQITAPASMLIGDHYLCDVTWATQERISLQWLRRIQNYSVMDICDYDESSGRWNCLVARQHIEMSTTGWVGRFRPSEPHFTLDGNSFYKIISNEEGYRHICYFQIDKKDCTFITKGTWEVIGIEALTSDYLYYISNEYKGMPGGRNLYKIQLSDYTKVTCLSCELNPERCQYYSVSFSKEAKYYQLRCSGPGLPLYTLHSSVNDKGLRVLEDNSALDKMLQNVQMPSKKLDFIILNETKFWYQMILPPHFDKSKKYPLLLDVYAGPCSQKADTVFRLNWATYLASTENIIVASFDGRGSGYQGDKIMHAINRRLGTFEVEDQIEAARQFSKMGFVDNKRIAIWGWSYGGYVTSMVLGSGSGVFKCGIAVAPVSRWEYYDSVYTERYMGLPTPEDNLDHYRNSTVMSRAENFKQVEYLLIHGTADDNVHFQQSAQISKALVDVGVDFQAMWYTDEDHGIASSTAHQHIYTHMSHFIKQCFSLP

S377-588-Fc (residues 377-588 of MERS-CoV S protein fused to Fc of human IgG) (Fc fusion)
inhibition of CPE formation caused by MERS-CoV infection in Calu-3 cells: 3 µg/mL
